Laboratory results: PMC5018216 (Nature structural & molecular biology, 2016)
Values joined by “and” are separate entries in the source; they are usually repeats but may differ in a detail not shown here. Equal values may be shown once.

Key:
[1] = molecular target: T1, tOmpA, the 8-stranded transmembrane domain of OmpA (UniProt P0A910 22-197); assay: native MS
T1 sequence: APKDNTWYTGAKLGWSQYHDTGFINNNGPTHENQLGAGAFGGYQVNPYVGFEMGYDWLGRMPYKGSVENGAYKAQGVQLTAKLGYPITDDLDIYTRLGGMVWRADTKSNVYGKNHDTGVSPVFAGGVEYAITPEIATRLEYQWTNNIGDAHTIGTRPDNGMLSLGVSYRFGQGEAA

native MS = molecular target: the molecule itself; assay: native MS
PagP = molecular target: T2, PagP (UniProt P37001 26-186); assay: native MS
T2 sequence (looked up): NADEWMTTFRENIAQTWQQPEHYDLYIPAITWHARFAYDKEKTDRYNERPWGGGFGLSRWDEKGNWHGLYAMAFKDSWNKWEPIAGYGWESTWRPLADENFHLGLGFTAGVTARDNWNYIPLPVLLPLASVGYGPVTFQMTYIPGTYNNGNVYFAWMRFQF

[2] = molecular target: tBamA, the 16-stranded transmembrane domain of the BamA OMP insertase (UniProt P0A940 425-810); assay: native MS
OmpT = molecular target: T3, OmpT (E. coli, UniProt P09169 21-317); assay: native MS
T3 sequence (looked up): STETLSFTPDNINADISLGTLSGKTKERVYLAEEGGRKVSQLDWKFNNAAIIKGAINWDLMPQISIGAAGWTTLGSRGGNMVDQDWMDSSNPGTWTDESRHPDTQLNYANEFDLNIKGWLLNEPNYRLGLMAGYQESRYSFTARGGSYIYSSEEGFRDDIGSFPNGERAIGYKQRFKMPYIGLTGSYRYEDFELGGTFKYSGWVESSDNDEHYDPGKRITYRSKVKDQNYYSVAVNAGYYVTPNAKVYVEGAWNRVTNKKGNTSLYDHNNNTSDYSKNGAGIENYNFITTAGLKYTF

OmpF = molecular target: T4, OmpF (UniProt P02931 23-362); assay: native MS
T4 sequence (looked up): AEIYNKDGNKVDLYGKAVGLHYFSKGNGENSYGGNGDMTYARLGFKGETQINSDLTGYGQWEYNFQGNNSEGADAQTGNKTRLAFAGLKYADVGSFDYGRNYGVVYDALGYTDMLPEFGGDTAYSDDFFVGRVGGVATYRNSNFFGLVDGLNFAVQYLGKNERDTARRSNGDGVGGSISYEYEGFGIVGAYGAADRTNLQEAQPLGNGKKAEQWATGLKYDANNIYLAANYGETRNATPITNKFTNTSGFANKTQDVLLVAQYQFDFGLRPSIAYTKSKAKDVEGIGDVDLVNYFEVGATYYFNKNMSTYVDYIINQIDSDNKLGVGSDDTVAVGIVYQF

full-length OmpA = molecular target: T5, full-length OmpA (UniProt P0A910 22-346); assay: cross-linking
T5 sequence (looked up): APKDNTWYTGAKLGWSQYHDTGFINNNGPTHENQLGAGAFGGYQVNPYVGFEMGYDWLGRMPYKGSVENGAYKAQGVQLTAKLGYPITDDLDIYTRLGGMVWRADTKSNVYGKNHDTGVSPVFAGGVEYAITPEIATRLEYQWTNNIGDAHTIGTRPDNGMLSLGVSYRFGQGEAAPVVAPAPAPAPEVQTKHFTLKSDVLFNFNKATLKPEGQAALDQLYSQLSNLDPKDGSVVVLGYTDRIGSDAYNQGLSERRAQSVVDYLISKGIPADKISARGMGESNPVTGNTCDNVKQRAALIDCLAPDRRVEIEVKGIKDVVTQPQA

full-length BamA = full-length BamA (UniProt P0A940 21-810); assay: cross-linking

B1: Skp (natural protein, Escherichia coli, UniProt P0AEU7 21-161, looked up)
chain: ADKIAIVNMGSLFQQVAQKTGVSNTLENEFKGRASELQRMETDLQAKMKKLQSMKAGSDRTKLEKDVMAQRQTFAQKAQAFEQDRARRSNEERGKLVTRIQTAVKSVANSQDIDLVVDANAVAYNSSDVKDITADVLKQVK
[1]
  stoichiometry N: 1 Skp (trimer) per OMP
Native MS
  binding result: binds
PagP
  stoichiometry N: 1 Skp (trimer) per OMP
[2]
  stoichiometry N: 1 Skp (trimer) per OMP and ≤ 2 Skp (trimer) per OMP
OmpT
  stoichiometry N: ≤ 2 Skp (trimer) per OMP and 1 Skp (trimer) per OMP
OmpF
  stoichiometry N: 1 Skp (trimer) per OMP and ≤ 2 Skp (trimer) per OMP

B2: His-tagged Skp (natural protein, Escherichia coli)
chain: ADKIAIVNMGSLFQQVAQKTGVSNTLENEFKGRASELQRMETDLQAKMKKLQSMKAGSDRTKLEKDVMAQRQTFAQKAQAFEQDRARRSNEERGKLVTRIQTAVKSVANSQDIDLVVDANAVAYNSSDVKDITADVLKQVK
full-length OmpA
  stoichiometry N: 1 Skp (trimer) per OMP
full-length BamA
  stoichiometry N: 2 Skp (trimer) per OMP
